A short description of the data set: yeast display, Sf9 membrane polyspecificity reagent, FACS + sequencing; frameworks hold sequencing errors. Summed up: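 Nanobodies came from a synthetic yeast display library in Saccharomyces cerevisiae BJ5465, induced with galactose for 36–48 hours and stained for 1 hour at 4 °C with 10% biotinylated, detergent-solubilized Sf9 membrane reagent. Cells were enriched on streptavidin microbeads and then FACS-sorted, with low and high (top ~1%) gates set on anti-HA fluorescence for expression and streptavidin fluorescence for reagent binding. Each polyreactivity label reflects the gate a clone came from. Genes were amplified by colony PCR, sequenced by MiSeq 2 × 250 and filtered by CDR length.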
“QVQLVESGGGLVQAGCSLRLSCAASGSIFRVYAMGWYRQAPGKEREFVAAITRSGGSTYYADSVKGRFTISRDNAKNTVYLQMNSLKPEDTAVYYCNAVYYSWAQSARFDYWGQGTQVTVSS”: the “polyreactivity (PSR sort gate)” value is “low polyreactivity”.
The value for “HVQLVESGGGLVQAGGCLRLSCAASGIIFLYNAMGWYRQAPGKERELVATITWSGGSTYYADSVKGRFTISRDNAKITVYLQMKSLKPEDTAVYYCAADYYYGYEFGYWGQGTQVTVSS” was “low polyreactivity”.
The value for “QVQLVESGGGLVQAGGSLRLSCAASGSIFYSNAMGWYRQAPGNERELVAAITYRGGRTYYADSVKGRFTISRDNAKNTVYLQKNSLKPEDTAVDYCAKVVRAQALDSIYNGRYDYWGEGTQVTVSS” was “low polyreactivity”; that for “QVQLVESGGGLVQAGGSLRLSCAASGYTFVDYAMGWYRQAPGKERELVAAISSSGARTYYAYSVKGRFTISRDNAKNSVYLQMNSLKAEDTAVYYCNTPRPYEITTPEYYYWGQGTQVTVSS” was “high polyreactivity”; that for “QVHLVESGGGFVQAGGSLGLSCAASGLTFSGNTMGCYTPAPGKERELVAAISSDGSTNYADSVKGRFTLSRDNAKYSVYLQMNSLKPEDTAVYYCNARVRYYFAFWRDYWGQGTQVTVSS” was “low polyreactivity”.
The value for “QVQLVESGGGLVQAGGSLRLSCAASGIIFWAYAMGWYRQAPGKERELVAAISWSGGRTYYADSVKGRFTISRDNAKNTVYLQMNSLKPEDTAVYYCAAYRFLLYDYWGQGTQVTVSS” was “high polyreactivity”.
Regarding “QVQHVESGGGLVQAGGSLRLSCAASGSTFDRYAMAWYRQAPGKERELVAAISRSTGRTNYADSVKGRFTISRDNAKNTVYLQMNSLIPEDTAVYYCAAYRYLRYDYWGQGTQVTVSS”, the “polyreactivity (PSR sort gate)” value was “high polyreactivity”.
In the case of “QVQLVESGGGLVQAGGSLRLSCAAPGSTFVYYAMGWFRQAPGKEGELVAAISRSGGHTYYADSVKGRFTISRDKAKKTVYLQMNSLKPEETAVYYCAARSYGVQYYYWGQRTQVTVSS”, the “polyreactivity (PSR sort gate)” value was “high polyreactivity”.
The value for “QVQLVESGGGLVQAGGSLRLSCAASGITFAGYAMGSDREAPGTERELVAAITRRGGITYYADSVKGRFTISRDNAKNTVYLQMNSLKPEDTAVYYCNAGRRVSTYGYWGQGTQVTVSS” was “high polyreactivity”; that for “QVQLVESGGGLVQAGGSLRLSCAASGYTSRTNAMGWYIQAPGKERELVAAITWRGTRTYYADSVKGRFTISRDNAKNTVYLQMNSLKPEDTAVYYCATQWIRKYDYWGQGTQVTVSS” was “high polyreactivity”.
The value for “QVQLVESGGGLVQAGGSLRLSCAAYGGIFKQYALGCYRQAPGKERELVAANTWSGGSTYYADSVKGRFTISRDNAKNTVYLQMNSLKPEDTAVYYCAKDYVLFQYVDFQDDDYWGQGTQVTVSS” was “low polyreactivity”; that for “QVQLVESCGGLVQAGGSLRLSCAASGSIFPPYAMGWYRQAPGKERELVATITIRGGSTYYADSVKGRFTISRDNAKNTVYLQMNSLKPEDTAVYYCAADYTKYYRRYYYWGQGTQVTVSS” was “high polyreactivity”; that for “QVQLVESGGGLVQAGGSLRLSCAASGFIFRYYAMGWYRQAPGKERELVARINRSGGSTYYADSVKGRFTISRDNAKNTVYLQMNSLKPEDTAVYYCAKDRTSYYSWYGYWGQGTQVTVSS” was “high polyreactivity”.
For “QVQLVESGRGLVQAGGSLRLSCAPSGFTFNVNAMGWYRQAPGKERELVAAISSSGTRTYYADSVKGRFTISRDNAKNTFYLQMNSLKPEDTAVYYCGASGQAYSGDRMYYWGQGTQVTVSS” the value was “high polyreactivity”; for “QVQLVESGGGLVQAGGSLRLSCAASGGTFQYHAMGWYRQAPGKERELVAAITRSGGSTYYADSVKGRFTISRDNAKNTVYLQMNSLKPEDTAVYYCAVRYVYGYPRYNYWGQGTQVTVSS”, “high polyreactivity”.
As to “QVQLVESGGGLAQAGGSLRLSCAASGRIFSVNVMGWYRQAPGKERELVAAITWSVGSTYYADSVKGRFTISRDNAKNTVYLQMNSLKPEDTAVFYCAARVPPVYGRVGGYHYWGQGTQVTVSS”, the “polyreactivity (PSR sort gate)” value is “low polyreactivity”.
Consider “QVQLVESGGGLVQAGGILRLSCAASGSIFTRYAMGWYRQAPGKEREFVAAITWRGGRTSYADSVKGRFTISRDKAKNTVYLQMNSLKPEDTAVYYCNRRYPYRTYDYWGQGTQVTVSS”, for which the “polyreactivity (PSR sort gate)” value is given as “high polyreactivity”.
For “QDQLVESAAGLVQAGGSLRLSCAASGSTFATYAMGWYRKAPGKERELVAAITASGGRTFYADSVKGRFTLSRDNAKNTVYLQMNSLKPEDPAVYYCAKRGDYVPYTFDYWGQGTQVTVSS” the value was “high polyreactivity”; for “QVQLVESGGGLVQAGGSLRLSCAASGFIFTKYAMGWYRQAPGKERELVAVITSRGTRTYYADSVKGRFTISRDNAKNTVYLQMNSLKPEDTAVYYCAADYQGPYDYWGQGTQVTVSS”, “high polyreactivity”; for “QVQLVESGGGLLQAGGSLRLSCAASGRTFNYYAMGWYRQAPWKESELVADIRGRGGSTYYADSVKGRFTISRDNAKITVYLQMNSLKPEDKAVYYCARRSPYPYSIYYYWGQGTQVTVSS”, “high polyreactivity”.
The value for “QVQLVESGGGLVQAGGSLRLSCAASGFYYYAMGWYRQAPGKERELVAVITYSGGSTYYADSVKGRFTISRDNAKNTVYLQMNSLKPEDTAVYYCAADDYYVALPGLYDYWGQGTQVTVSS” was “low polyreactivity”; that for “QVQLVESGGGLVQAGGSLRLSCAASGRILAYNVMGWYRQAPGKEREFVASIRRTGVRTYYADSVKGRFTISRDNAKNTVYLQMNSLKPEDTAVYYCNAANFNFWDYYYWGQGTQVTVSS” was “low polyreactivity”.
For “QFQLVESGGGLVQAGGSLRLSCAASGSIFKYYVMGWYRQAPGNERELVATITSDGGTNYADSVKGRFTISRDNAKNTVYLQMNSLKPEDTAVYYCNAASRRGSRKQAKYDYWGQGTQVTVSS” the value was “low polyreactivity”; for “QVQLVESGGGLVQAGGSLRLSCAASGRTFRGYAMGWYRQAPGKERELVAGITQRGGTTYYADSVKGRFTISRDNAKNTVYLQMNSLKPEDSAVYYCAAAFGRVTKYGYRNQYGYWGHGTQVTVSS”, “high polyreactivity”.
As to “QVQLVESGARLVQAGGSLRLRCAPSGSIFDGYAMGWYRQAPGKEREFVAAISKGGTRTYYADSVKGRFTISRDNAKNTVYLQMNSLIPEDSAVFYCNAYYRREPDDGDYDYWGQGTQVTVSS”, the “polyreactivity (PSR sort gate)” value is “high polyreactivity”.
The value for “QVQLVESGGGLVQAGGSLRLSCAASGFTFADYAMGWYRQAPGKERELVAAINRSGGRTYYADSVKGRFTISRDNAKNTVYLQMNSLKPEDTAVYYCAAYGITYHNYDYWGQGTQVTVSS” was “high polyreactivity”.
For “QVQLVESGGGLVQAGGSLRLSCAASGSISVANAMGWYRQAPGKERELVAAITDSGDDTYYADSVKGRFTISRDNAKNTVYLQMNSLKPEDTAVYYCAVEAWSVPPYDYWGQGTQVTVSS” the value was “low polyreactivity”; for “QVQLVESGGGLVQAGGSLRLSCAASGRTFWIYGMGWYRQAPGKERELVAAITRSGGSTNYADSVKGRFTISRDNAKNTVYLQMKSLKPEDTAVYYCAADTWYPGYYAYDYWGQGTQVTVSS”, “high polyreactivity”.
For the sequence “QVQLQESDGGLVQAGGSLRLSCAASGSISPQYYRGWYRQAPGKEREFVAISKGTSTYYADSVKGRLTISRVNAKNTVYLQMNSLKPEDTAVYCCAAGRWLQKVHAYWDQGTQVTVSS”, the “polyreactivity (PSR sort gate)” value is “low polyreactivity”.
The value for “QVQLVESGGGLVQAGGSLRLSCAASGSTFFRNAKGWYRQAPGKERELVAANSSTGGTTYYAHSVKGRFTISRDNAQNTVYLQMNSLKPEETAVYYCAAAGYIENDGYVQKFEYWGQGTQVTVSS” was “low polyreactivity”; that for “QVQLQESGGGLVQAGGSLRLSCAASGTIFRFRYMGWHRQAPGKERELVAGINGGTTTYYADSVIGRFTISRDNAIKTVYLQMNSLKPDDTAVYNCAAGASRLTYYDYWGQGTQVTVSS” was “low polyreactivity”.
For “HVQLQESGGGLVQAGGSLRLSCAASGSIYQATYMGWYRQAPGKEREFVASITYGSITNYADSVKGRFTIGRDNANDTLYLQMNSLKPEDTAVYYCSVDRHYYWGQGTQVTVST” the value was “low polyreactivity”; for “QVQLVESGGGLVQAGGSLRLSCAASGIIFPYYAMGWYRQAPGKERELVAAINSSGGSTFYAHSVKGRFTISRDNAKNTVYLQMNSLKPVVTAVYYCAAETLRYRWSLYYWGQGTQVTVSS”, “high polyreactivity”.
The value for “QVQLVESGGGLVQAGGSLRLSCAASGSTFDSNGMGWYRQAPGKERELVADITYSDGRTYADSVKGRFTISRDNAKNTVYLQMNSLKPEDTAVYYCAVSDSVYAGFTSYDYWGQGTQVTVSS” was “low polyreactivity”; that for “QVQLVESAGGLVQAGGSLRLSCAASGRTFGYYAMGWYRQAPGKERELVAAISSGGSTNYADSVKGRFTISRDNAKNTVYLQMNSLKPEDTAVYHCAAKAWYYPGRRNYYQYYYWGQGTQVTVSS” was “high polyreactivity”.
Regarding “QVQLVESGGGLVQAGGSLRLSSAASGGTFDPYAMGWYRQAPGKERELVAAISDGRRTYYADSVKGRFTISRDNAKNSVYLLMNSRNTEETAVYYFDKCRLTSRICYYWWSAYHPSDYWGQGTQVSVSS”, the “polyreactivity (PSR sort gate)” value is listed as “low polyreactivity”.
The value for “QVQLQESCGGLVQVGGSLRLSCAASVTIFIYGFLGWYRQAPGKERELVASINLGGITNYADSVKGRFTISRDNANNTVYLQMISLKPEDTAVYYCAAYVVTGQNYGYWGQGTQVTVSS” was “low polyreactivity”.
For “QVQLVESGGGLVQAGGSLRLSCAASGRTFFRYAMGWYRQAPGKERELVAAISRSGGGTYYADSVKGRFTISRDNAKNTVYLQMNSLKPEDTAVYYCNRDDYSRNHVYEFDYWGQGTQVTVSS” the value was “low polyreactivity”; for “QVQLVESGGGLVQAGGSLRLSCAPSGFIFGLYVMGWYRQAPGKERELVAAITTSVGSTYYADSVKGRFTISRDNAKNTVYLQMNSLKPEDTAVYYCAKTSGTIDYDYWGQGTQVTVSS”, “low polyreactivity”; for “QVQLVESGGGLVQAGGSLRLSCAASGFIFDRNTMGWYRQAPGKERELVATISSTGTTNYADSVKGRFTISRDNAKNTVYLQMNSLKPEDTAVYYCNAYPRWRYVSYYRSYRYDYWGQGTQVTVSS”, “high polyreactivity”.
For “QVQLVESRGGLVQAGGSLRLRCAASGRIIIAYMAWYRQAPGKERELVAAIDSGASTYYADSVKGRFTISRDNAKNNVYLQMNSLIAEDTAVYYCASDVVYDYGGMDYWGQGTQVTVSS” the value was “low polyreactivity”.

Source of the values: the nanobody polyreactivity screen of Harvey et al. (2022).
